How the values were obtained:
[1] = tested on: A. nidulans α-1,2-mannosidase IB; assay: Effect of EDTA, calcium and deoxymannojirimycin on enzyme activity; assay type: biochemical, Aspergillus nidulans; conditions: for effect of addition on enzyme activity: added to purified α-1,2-mannosidase IB
Protocol: (§1) FIG. 8: Biochemical characterization of purified A. nidulans α-1,2-mannosidase IB (A) and α-1,2-mannosidase IC (B) enzymes. Enzyme activity was assayed by digestion of the synthetic substrate Man-α1,2-Man-OCH3 at 37 °C for 3 hours. Released mannose was detected using a colorimetric glucose oxidase/horseradish peroxidase assay (see Materials and Methods) and measuring absorbance at […].
(§2) The α-mannosidase IB and IC expression vectors were introduced into the genome of A. nidulans strain T580 (ura-) by cotransformation and complementation with the pJR15 vector, which contained the selectable ura marker. It has been shown that when two plasmids are used simultaneously in the transformation of fungal protoplasts (cotransformation), as many as 60% of transformed protoplasts will integrate both of the plasmids into the genome (Wernars et al. 1987, Mol. Gen. Genet., 209: 71-77). Protoplasts were prepared according to the method of Fincham (1989, Microbiol. Rev., 53: 148-170), using Sigma Lysing Enzyme for cell wall digestion. Protoplasts of strain T580 (uridine auxotroph) were co-transformed with 1 μg of the selectable marker pJR15, which converts transformed cells to uridine prototrophy, and with 1 μg of either ANIBSEC or ANICSEC. Transformants were initially screened for integration of […] by selection on minimal media, and positive transformants were then transferred to individual complete media plates. Transformants were selected for prototrophy on uridine deficient minimal media and transferred to complete media plates. To confirm secretion of active recombinant α-1,2-mannosidase IB or IC into the culture media of putative transformants, specific activity assays were performed. After 60-65 hours of incubation, aliquots of culture media were assayed for α-1,2-mannosidase activity and compared to the non-transformed T580 strain. Total culture filtrate protein was precipitated and resuspended in assay buffer. Mannosidase assays were performed using the disaccharide Man-α-1,2-Man-OCH3 as a substrate in a coupled enzyme assay as described earlier (Scaman et al. 1996, Glycobiol., 6: 265-270), with some modifications. Digestion of the substrate was performed in a 30 μl final volume containing 10 mM sodium acetate/acetic acid buffer (pH 5.0) and 3 μl 100 mM disaccharide Man-α-1,2-Man-OCH3 incubated at 37° C. for 3 hours. Released mannose was detected by addition of 30 μl 1.25M Tris-HCl (pH7.6) and 240 μl of developing solution, containing glucose oxidase (55 U/ml), horseradish peroxidase (1 U/ml) and o-dianisidine dihydrochloride (70 μg/ml) followed by incubation at 37° C. for 3 hours. Absorbance measurements at 450 nm were used to determine final color change. A standard curve of free mannose concentrations was determined for comparison.

[2] = tested on: A. nidulans α-1,2-mannosidase IC; assay: as above; assay type: biochemical, Aspergillus nidulans; conditions: for effect of addition on enzyme activity: added to purified α-1,2-mannosidase IC
Protocol: as §1, §2

[3] = Digestion of Man9GlcNAc2, cleavage products by MALDI-TOF mass spectrometry; assay type: biochemical; conditions: for cleavage of Man9GlcNAc2 (substrate specificity): non-limiting conditions, about 100 ng enzyme, 10 pmol Man9GlcNAc2
Protocol: FIG. 9: Partial digestion of Man9GlcNAc2 (M9) with A. nidulans α-1,2-mannosidase IB (A) and A. nidulans α-1,2-mannosidase IC (B) by MALDI-TOF mass spectrometry. Peaks represent parent molecules ionized with sodium (M+Na+). Several different digestion products are produced in each reaction, including Man8GlcNAc2 (M8), Man7GlcNAc2 (M7), Man6GlcNAc2 (M6) and Man5GlcNAc2 (M5).
The substrate specificity of the α-1,2-mannosidase IB and IC from A. nidulans was determined by analyzing the cleavage products of Man9GlcNAc2 by MALDI-TOF mass spectrometry. Approximately 100 ng of either α-1,2-mannosidase IB or IC protein was used to digest 10 pmol of Man9GlcNAc2 (Sigma) in a final volume of 10 μl. Digestion products were analyzed by matrix assisted laser desorption ionization time of flight mass spectrometry (MALDI-TOF-MS) using a Voyager biospectrometry workstation (Applied Biosystems, Foster City Calif.). Samples were mixed in a 1:1 ratio with the matrix (10 mg/ml 2,5-dihydroxybenzoic acid; 50% acetonitrile) and 1 μl was loaded onto a sample plate for analysis. […] Accelerating voltage was 20000V and the grid voltage was set at 94%. Data were analyzed using Data Explorer software (Applied Biosystems, Foster City Calif.). […] This supports the classification of both the α-1,2-mannosidase IB and IC in subgroup 2.
The rate at which various intermediates were produced during the digestion of Man9GlcNAc2 to Man5GlcNAc2 was determined by analyzing the cleavage products during limited time-course experiments (FIG. 9). […] This led to the accumulation of Man7GlcNAc2 and Man6GlcNAc2 intermediates during the progress of the digestion, which were eventually converted to Man5GlcNAc2.

[4] = α-1,2-mannosidase specific activity assay of secreted recombinant enzymes (coupled enzyme assay); assay type: biochemical; conditions: purified enzyme; for optimal pH for highest activity: FIG. 8; for specific activity: non-limiting amounts of Man-α-1,2-Man-OCH3, 1 U = 1 nmol mannose per hour
Protocol: as §1
as §2, with “Digestion of the substrate was performed in a 30 μl final volume containing 10 mM sodium acetate/acetic acid buffer (pH 5.0) and 3 μl 100 mM disaccharide Man-α-1,2-Man-OCH3 incubated at 37° C. for 3 hours.” left out, “comparison. […] Protein concentrations were determined by the Bradford method (Bradford 1976, Anal. Biochem., 72: 248-254) and comparison to a bovine serum albumin (BSA) standard curve. […]” for “comparison.”

[5] = limited time-course experiments, FIG. 9

Row | Molecule | effect of addition on enzyme activity [1] | effect of addition on enzyme activity [2] | rate of digestion of Man9GlcNAc2 to intermediates [3, 5] | cleavage of Man9GlcNAc2 (substrate specificity) [3] | optimal pH for highest activity [4] | specific activity [4] | further results
1 | O=C(O)CN(CCN(CC(=O)O)CC(=O)O)CC(=O)O [EDTA] | significantly reduced enzyme activity | significantly reduced enzyme activity |  |  |  |  | 
2 | [Ca+2] [calcium] |  |  |  |  |  |  | effect of addition on EDTA-reduced enzyme activity ([1]; added after EDTA, α-1,2-mannosidase IB): restored; effect of addition on EDTA-reduced enzyme activity ([2]; added after EDTA, α-1,2-mannosidase IC): restored
3 | OC[C@H]1NC[C@@H](O)[C@@H](O)[C@@H]1O [deoxymannojirimycin] | significant decrease in activity | significant decrease in activity |  |  |  |  | 
4 | α-1,2-mannosidase IC: Class I α-1,2-mannosidase from A. nidulans (mnsIC, SEQ ID NO: 18), expressed from vector ANICSEC (protein, Aspergillus nidulans) MPRRWSSLISITAIFLVLFFLLHRNTDTPRAANRATNGPANGFARQQSICPSTPPQPPYNRTSTGGFNWGEIPVRYPVSDFIPLSTNSPATLPRIQRSSFPLQSSITKSRQAAVKGAFQRAWTSYTTHAWKADEVRPITAGSRNNFGGWGATLVDNLDTLLIMGLDEEFAAAVDALADIEFSPHSSPSSSQSTINIFETTIRYLGGLLAAYDLTGCRETRLLDKAIQLGEMIYTSFDTENRMPVPRWNLHKAGNGEPQRAAVQGVLAELASSSLEFTRLSQLTGDMRYFDAASRITDLLDSQAGHTRIPGLWPVSVNLQKGDLTRGSTFSFGGMADSAYEYLGKTYRLLGGVGKGPQYERLARNALDAGIRHLLFRPMTPDHADILLPGVAHATSSSVGLEPRTEHLACFVGGMYALAGKLFSNQTYLDTGRKLTDGCIWYYDNSPLGIMPEMFTVPACPSVAECPWDETRGGIYTYVRDGHYFLRPEAMESIFYMWRITGDEKYREAAWRMFTAIEAVTKTEFGNAAVRDVMVEEGNVKREDSMESFWMAETLKYLYLIFGETDLVSLDDWVFNTEAHPLRGAGS |  |  | rapidly degraded Man9GlcNAc2 to Man7GlcNAc2 | cleaved Man9GlcNAc2 completely and efficiently to a Man5GlcNAc2 structure | 5.0 | 4.56 U/µg | rate of conversion of Man7GlcNAc2 and Man6GlcNAc2 intermediates to Man5GlcNAc2 [3, 5]: more rapidly than the α-1,2-mannosidase IB enzyme
5 | α-1,2-mannosidase IB: Class I α-1,2-mannosidase from A. nidulans (mnsIB, SEQ ID NO: 6), expressed from vector ANIBSEC (protein, Aspergillus nidulans) MRTLLALAAFAGFAAARVPATAITRPVMRSDSRADAVKEAFSHAWDGTTNTAFPHDELHPISNGTGDSRNHWGASAVDALSTAIMMRNATIVNQILDHIAAVDTSKTNAMVSLFETTIRTLAGMISGTDLLKGPAAGLVDDSRVDVLLEQSQNLAEVLKFAFDTPSGVPTNMINITSGGNDGATTNGLAVTGTLVLEWTRLSDLTGNDETARLSQRAEDTLLHPEPAQTEPFPGLIGSAVNIADGKLANGHISWNGGADSTTETLIKMTVTDPERFGLTRDRWVAAAESSINHLASHPSTRPDVTFLATTNEEHQLGLTSQHLTCFDGGSFLLGGTLLDRQDFVDFGLDLVAGCHETTNSTLTGIGPEQFSWDPNGVPDSQKELFERAGFTINSGQTILRPEVIESFTTAWRVTGDGTTLEWVWNAFTNINKTCRTATGFAGLENVNAANGGGRIDNQESFMFAEVLKTSFLTFAPEDDWQVQKGSGNTFVTNTEAHPFKVTTPQ |  |  | rapidly degraded Man9GlcNAc2 to Man7GlcNAc2 | cleaved Man9GlcNAc2 completely and efficiently to a Man5GlcNAc2 structure | 5.0 | 7.52 U/μg | 
